Results on one molecule are retold here after patent publication US20190309072A1 (published 2019).

One assay deals with T1, human ITGa3 protein (human, UniProt P26006 33-991).
T1 chain: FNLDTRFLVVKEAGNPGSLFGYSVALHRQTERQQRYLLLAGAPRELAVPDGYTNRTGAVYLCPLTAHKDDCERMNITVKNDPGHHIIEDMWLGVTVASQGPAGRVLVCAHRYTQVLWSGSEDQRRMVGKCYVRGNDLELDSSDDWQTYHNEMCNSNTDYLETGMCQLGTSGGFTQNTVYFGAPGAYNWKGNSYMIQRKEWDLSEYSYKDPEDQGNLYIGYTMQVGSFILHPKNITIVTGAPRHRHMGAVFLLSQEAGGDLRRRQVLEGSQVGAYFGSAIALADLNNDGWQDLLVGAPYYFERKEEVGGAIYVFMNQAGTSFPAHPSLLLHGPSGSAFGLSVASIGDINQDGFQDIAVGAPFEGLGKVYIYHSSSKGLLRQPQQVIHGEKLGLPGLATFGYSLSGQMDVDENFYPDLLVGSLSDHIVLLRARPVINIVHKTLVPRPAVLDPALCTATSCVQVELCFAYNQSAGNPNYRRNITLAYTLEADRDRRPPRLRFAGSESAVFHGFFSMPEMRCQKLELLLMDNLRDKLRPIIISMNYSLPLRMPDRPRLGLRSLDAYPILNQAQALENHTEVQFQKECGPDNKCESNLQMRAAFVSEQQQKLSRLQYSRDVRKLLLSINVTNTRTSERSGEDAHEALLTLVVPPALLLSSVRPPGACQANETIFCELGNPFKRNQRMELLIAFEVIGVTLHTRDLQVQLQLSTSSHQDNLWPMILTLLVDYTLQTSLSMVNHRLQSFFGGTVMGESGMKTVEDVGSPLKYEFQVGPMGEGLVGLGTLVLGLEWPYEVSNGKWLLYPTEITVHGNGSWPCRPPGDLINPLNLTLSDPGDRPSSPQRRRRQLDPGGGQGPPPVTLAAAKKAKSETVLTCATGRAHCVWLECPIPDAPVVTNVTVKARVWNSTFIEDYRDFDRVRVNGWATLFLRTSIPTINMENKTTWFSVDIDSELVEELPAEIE
Put plainly: ELISA; apparent Kd.

For assay [1], the target named is T2, human ITGa3 on human-derived cell lines (human, UniProt P26006 33-1051).
T2 chain: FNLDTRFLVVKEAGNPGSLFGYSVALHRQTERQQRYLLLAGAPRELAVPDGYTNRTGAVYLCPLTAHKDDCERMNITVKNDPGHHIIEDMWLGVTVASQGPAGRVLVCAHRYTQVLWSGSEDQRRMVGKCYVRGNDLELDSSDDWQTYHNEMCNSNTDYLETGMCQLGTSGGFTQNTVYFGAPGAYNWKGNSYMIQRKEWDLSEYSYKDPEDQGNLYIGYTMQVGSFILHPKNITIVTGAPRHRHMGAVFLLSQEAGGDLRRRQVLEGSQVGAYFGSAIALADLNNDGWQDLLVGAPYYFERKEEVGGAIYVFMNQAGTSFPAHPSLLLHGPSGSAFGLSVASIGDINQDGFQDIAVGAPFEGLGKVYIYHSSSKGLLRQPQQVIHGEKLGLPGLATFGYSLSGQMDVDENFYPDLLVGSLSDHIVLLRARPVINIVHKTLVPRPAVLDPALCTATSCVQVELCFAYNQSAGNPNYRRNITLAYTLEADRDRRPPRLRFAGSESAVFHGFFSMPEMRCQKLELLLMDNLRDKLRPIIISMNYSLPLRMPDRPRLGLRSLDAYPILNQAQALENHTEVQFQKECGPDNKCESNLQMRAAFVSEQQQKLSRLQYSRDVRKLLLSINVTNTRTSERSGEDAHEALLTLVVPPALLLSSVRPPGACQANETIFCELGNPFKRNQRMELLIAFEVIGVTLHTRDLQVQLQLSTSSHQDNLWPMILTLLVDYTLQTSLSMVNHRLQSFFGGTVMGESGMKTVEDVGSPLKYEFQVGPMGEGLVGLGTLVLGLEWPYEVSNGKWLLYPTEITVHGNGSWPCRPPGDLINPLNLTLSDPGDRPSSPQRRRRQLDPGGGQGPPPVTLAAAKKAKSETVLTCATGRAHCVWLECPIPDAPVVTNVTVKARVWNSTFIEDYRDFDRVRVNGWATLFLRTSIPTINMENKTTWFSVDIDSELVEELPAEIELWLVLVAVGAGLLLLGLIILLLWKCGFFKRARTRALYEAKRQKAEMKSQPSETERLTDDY
The assay can be described thus: FACS; human H292 cells. In general terms: In flow cytometry, cells or beads pass a laser one at a time.

Assay [2] addresses T3, cynomolgus monkey ITGa3 on cynomolgus-derived primary kidney epithelial cells (cynomolgus monkey, UniProt A0A2K5VFR2 17-1035).
T3 chain: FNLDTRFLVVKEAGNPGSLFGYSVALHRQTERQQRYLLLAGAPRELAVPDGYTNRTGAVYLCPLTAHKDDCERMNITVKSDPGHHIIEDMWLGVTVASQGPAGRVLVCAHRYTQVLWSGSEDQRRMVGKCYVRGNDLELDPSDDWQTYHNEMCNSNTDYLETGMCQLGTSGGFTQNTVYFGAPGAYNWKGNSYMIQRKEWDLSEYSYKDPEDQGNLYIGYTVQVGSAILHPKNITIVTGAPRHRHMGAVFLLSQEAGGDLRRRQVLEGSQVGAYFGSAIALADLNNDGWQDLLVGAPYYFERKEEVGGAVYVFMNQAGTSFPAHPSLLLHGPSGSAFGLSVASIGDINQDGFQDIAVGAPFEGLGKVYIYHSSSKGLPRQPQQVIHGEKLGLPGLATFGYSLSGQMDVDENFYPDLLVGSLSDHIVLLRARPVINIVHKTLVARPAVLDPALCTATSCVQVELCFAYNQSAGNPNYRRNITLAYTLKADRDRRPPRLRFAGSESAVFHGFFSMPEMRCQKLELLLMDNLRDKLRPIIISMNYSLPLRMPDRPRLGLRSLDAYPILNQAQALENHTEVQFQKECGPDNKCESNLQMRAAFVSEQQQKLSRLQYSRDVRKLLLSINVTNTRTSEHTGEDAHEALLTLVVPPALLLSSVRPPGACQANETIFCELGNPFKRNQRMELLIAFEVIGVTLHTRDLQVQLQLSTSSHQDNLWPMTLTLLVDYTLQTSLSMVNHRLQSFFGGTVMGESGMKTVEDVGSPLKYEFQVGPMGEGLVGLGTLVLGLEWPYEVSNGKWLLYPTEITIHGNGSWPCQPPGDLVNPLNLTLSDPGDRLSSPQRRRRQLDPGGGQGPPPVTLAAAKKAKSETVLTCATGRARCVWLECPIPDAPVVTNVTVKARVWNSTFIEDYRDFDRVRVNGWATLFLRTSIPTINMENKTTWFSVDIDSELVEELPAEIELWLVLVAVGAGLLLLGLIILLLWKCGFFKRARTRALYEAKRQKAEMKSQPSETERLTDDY
The assay can be described thus: FACS; cyno primary kidney epithelial cells.

B1: anti-ITGa3 huVM2 Hc2T62G/Lc1 antibody (antibody, V domains shown)
VH: QVQLVQSGAEVKKPGSSVKVSCKASGYTFTEYIIHWVRQAPGQGLEWIGWFYPESGSVKYNEGFKGRATITADKSTSTAYMELSSLRSEDTAVYYCARHEERDYYGYYAMDYWGQGTTVTVSS
VL: DIQMTQSPSSLSASVGDRVTITCSASSSISSNYLHWYQQKPGKVPKLLIYRTSNLASGVPSRFSGSGSGTDYTLTISSLQPEDVATYYCQQGSSIPRFTSGGGTKVEIKR
Consider B1, for which the Kd with human ITGa3 protein worked out at 0.18 nM; in assay [1], 0.27 nM; in assay [2] it was 0.17 nM.
